The results in this text go back to patent US20250064979A1.

In this test the target is Gag-P3-pol (P3 coiled-coil peptide fused to MMLV Gag-pol) (Moloney murine leukemia virus) (UniProt P03332). Nature of the test: cell-based or functional assay.

Turning to “Gag-PE fusion with P4 peptide fused to its C-terminus (construct 1 of FIG. 44A) (from UniProt P03332 1-538)”, the editing efficiency of PE VLPs amounted to 2 fold.
